The values that follow come from article PMC3320582, “Group A Streptococcus Secreted Esterase Hydrolyzes Platelet-Activating Factor to Impede Neutrophil Recruitment and Facilitate Innate Immune Evasion” (PLoS Pathogens, 2012).

Substrate in the data set: [H][C@@](COCCCCCCCCCCCCCCCC)(COP(=O)([O-])OCC[N+](C)(C)C)SC(C)=O
Description: purified protein. It counts as biochemical, Homo sapiens. The conditions noted are these: PAF acetylhydrolase assay kit; measured as comparison to SsE.

One may read the Km as the concentration of substrate that gives half-maximal velocity. The kcat is the maximal rate divided by the concentration of active sites.

B1: human recombinant plasma PAF acetylhydrolase (Homo sapiens) (protein)
chain: FDWQYINPVAHMKSSAWVNKIQVLMAAASFGQTKIPRGNGPYSVGCTDLMFDHTNKGTFLRLYYPSQDNDRLDTLWIPNKEYFWGLSKFLGTHWLMGNILRLLFGSMTTPANWNSPLRPGEKYPLVVFSHGLGAFRTLYSAIGIDLASHGFIVAAVEHRDRSASATYYFKDQSAAEIGDKSWLYLRTLKQEEETHIRNEQVRQRAKECSQALSLILDIDHGKPVKNALDLKFDMEQLKDSIDREKIAVIGHSFGGATVIQTLSEDQRFRCGIALDAWMFPLGDEVYSRIPQPLFFINSEYFQYPANIIKMKKCYSPDKERKMITIRGSVHQNFADFTFATGKIIGHMLKLKGDIDSNVAIDLSNKASLAFLQKHLGLHKDFDQWDCLIEGDDENLIPGTNINTTNQHIMLQNSSGIEKYN
notes: commercial recombinant protein (Cayman Chemical)
On to B1, for which the Km turned out to be 8.0 µM and the kcat amounted to 15.4 s⁻¹.
